Tests used:
Test in all cases: purified protein
[1] = substrate: N[C@@H](CCO)C(=O)O; conditions: 25°C, 37 nM ThrB
[2] = substrate: N[C@H](C(=O)O)[C@H](O)CO
[3] = substrate: C[C@@H](O)[C@H](N)C(=O)O; conditions: 0.1 M Tris–HCl pH 8.0, 25°C, 1.25 μM LtaE
[4] = substrate: C[C@H](O)[C@H](N)C(=O)O; conditions: 0.1 M Tris–HCl pH 8.0, 25°C, 62.5 nM LtaE
[5] = substrate: O=C(O)C(=O)COP(=O)(O)O; conditions: 50 mM Tris–HCl pH 7.4, 37°C, MalE–YeaB 5.7 μM
[6] = substrate: O=C(O)[C@H](O)[C@H](O)COP(=O)(O)O; conditions: 2 mM NAD+, 100 mM Tris–HCl pH 7.5, 25°C, 2 μM PdxA
[7] = 0.1 M Tris–HCl pH 8.0, 25°C, 1 μM LtaE

B1: ThrB (homoserine kinase) (Escherichia coli K-12) (protein)
chain: MVKVYAPASSANMSVGFDVLGAAVTPVDGALLGDVVTVEAAETFSLNNLGRFADKLPSEPRENIVYQCWERFCQELGKQIPVAMTLEKNMPIGSGLGSSACSVVAALMAMNEHCGKPLNDTRLLALMGELEGRISGSIHYDNVAPCFLGGMQLMIEENDIISQQVPGFDEWLWVLAYPGIKVSTAEARAILPAQYRRQDCIAHGRHLAGFIHACYSRQPELAAKLMKDVIAEPYRERLLPGFRQARQAVAEIGAVASGISGSGPTLFALCDKPETAQRVADWLGKNYLQNQEGFVHICRLDTAGARVLEN
[1]
  Km: 120 ± 20 µM
  kcat: 46 ± 4 s⁻¹
  kcat/Km: 380000 ± 70000 M⁻¹ s⁻¹
[2]; 25°C, 0.18 μM ThrB
  Km: 2000 ± 100 µM
  kcat: 9.7 ± 0.8 s⁻¹
  kcat/Km: 4800 ± 600 M⁻¹ s⁻¹

B2: LtaE (low-specificity threonine aldolase) (Escherichia coli K-12) (protein)
chain: MIDLRSDTVTRPSRAMLEAMMAAPVGDDVYGDDPTVNALQDYAAELSGKEAAIFLPTGTQANLVALLSHCERGEEYIVGQAAHNYLFEAGGAAVLGSIQPQPIDAAADGTLPLDKVAMKIKPDDIHFARTKLLSLENTHNGKVLPREYLKEAWEFTRERNLALHVDGARIFNAVVAYGCELKEITQYCDSFTICLSKGLGTPVGSLLVGNRDYIKRAIRWRKMTGGGMRQSGILAAAGIYALKNNVARLQEDHDNAAWMAEQLREAGADVMRQDTNMLFVRVGEENAAALGEYMKARNVLINASPIVRLVTHLDVSREQLAEVAAHWRAFLAR
[3]
  Km: 4000 ± 200 µM
  kcat: 1.1 ± 0.1 s⁻¹
  kcat/Km: 280 ± 20 M⁻¹ s⁻¹
[4]
  Km: 52 ± 4 µM
  kcat: 3.2 ± 0.2 s⁻¹
  kcat/Km: 62000 ± 5000 M⁻¹ s⁻¹
[2]; [7]
  Km: 27 ± 2 µM
  kcat: 1.44 ± 0.03 s⁻¹
  kcat/Km: 53000 ± 4000 M⁻¹ s⁻¹

B3: MalE–YeaB (YeaB, also known as NudL) (Escherichia coli K-12) (protein)
chain: MEYRSLTLDDFLSRFQLLRPQINRETLNHRQAAVLIPIVRRPQPGLLLTQRSIHLRKHAGQVAFPGGAVDDTDASAIAAALREAEEEVAIPPSAVEVIGVLPPVDSVTGYQVTPVVGIIPPDLPYRASEDEVSAVFEMPLAQALHLGRYHPLDIYRRGDSHRVWLSWYEQYFVWGMTAGIIRELALQIGVKP
[5]
  kcat: 5.7e-05 ± 7e-06 s⁻¹
  kcat/Km: > 0.028 M⁻¹ s⁻¹

B4: PdxA (4-hydroxy-L-threonine dehydrogenase) (Escherichia coli K-12) (protein)
chain: MVKTQRVVITPGEPAGIGPDLVVQLAQREWPVELVVCADATLLTNRAAMLGLPLTLRPYSPNSPAQPQTAGTLTLLPVALRAPVTAGQLAVENGHYVVETLARACDGCLNGEFAALITGPVHKGVINDAGIPFTGHTEFFEERSQAKKVVMMLATEELRVALATTHLPLRDIADAITPALLHEVIAILHHDLRTKFGIAEPRILVCGLNPHAGEGGHMGTEEIDTIIPVLNELRAQGMKLNGPLPADTLFQPKYLDNADAVLAMYHDQGLPVLKYQGFGRGVNITLGLPFIRTSVDHGTALELAGRGKADVGSFITALNLAIKMIVNTQ
[6]
  Km: 150 ± 13 µM
  kcat: 0.020 ± 0.002 s⁻¹
